Results as given in US20160237157A1 (published 2016).

T1: mouse FGFR4-Fc chimeric protein (mouse, UniProt Q03142 17-366)
T1 chain: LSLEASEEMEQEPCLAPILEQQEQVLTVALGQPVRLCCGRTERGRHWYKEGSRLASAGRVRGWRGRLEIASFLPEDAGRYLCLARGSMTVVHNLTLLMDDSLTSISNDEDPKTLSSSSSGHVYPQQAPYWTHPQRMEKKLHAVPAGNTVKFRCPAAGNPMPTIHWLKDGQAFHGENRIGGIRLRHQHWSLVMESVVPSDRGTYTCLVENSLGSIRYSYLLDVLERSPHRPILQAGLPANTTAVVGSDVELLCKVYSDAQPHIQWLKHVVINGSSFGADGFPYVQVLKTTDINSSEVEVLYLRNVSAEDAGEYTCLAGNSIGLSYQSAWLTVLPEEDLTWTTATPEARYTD

B1: chimeric LD1 (chLD1) (antibody, V domains shown)
VH: EVQLQQPGAVLVRPGTSVKLSCKASGYTFTNHWMNWVKQRPGQGLEWIGMIHPSDSETTLDQKFKDKATLTVDKSSSTAYMQLNRPTSEDSAVYYCTRGDISLFDYWGQGTTVTVSS
VL: DIQMTQTTSSLSASLGDRVTITCRTSQDISNFLNWYQQKPDGTFKILISYTSRLHSGVPSRFSGSGSGTDYSLTISTLEQEDFATYFCQQGNALPYTFGGGTKLEIE
B2: LD1 (antibody, V domains shown)
VH: B1 VH
VL: B1 VL

Experiments:
Assay in all cases: SPR
[1] = target: human FGFR4-Fc chimeric protein (UniProt P22455 22-369)
Chain of human FGFR4-Fc chimeric protein (P22455 22-369, change not shown): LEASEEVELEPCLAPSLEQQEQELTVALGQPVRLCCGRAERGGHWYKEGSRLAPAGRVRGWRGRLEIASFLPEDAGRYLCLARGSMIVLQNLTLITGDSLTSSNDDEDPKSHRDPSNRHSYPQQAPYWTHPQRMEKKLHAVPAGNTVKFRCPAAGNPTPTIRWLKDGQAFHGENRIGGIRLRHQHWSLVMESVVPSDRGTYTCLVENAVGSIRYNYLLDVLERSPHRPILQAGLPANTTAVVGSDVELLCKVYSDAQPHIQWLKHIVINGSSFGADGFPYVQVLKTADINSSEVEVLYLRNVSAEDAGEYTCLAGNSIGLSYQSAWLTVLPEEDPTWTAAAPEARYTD

[2] = target: T1, mouse FGFR4-Fc chimeric protein
Cynomolgus FGFR4 = Cynomolgus FGFR4 (cynomolgus monkey)

Row | Binder | Kd [1] [pM] | Kd [2] [pM] | Kd (Cynomolgus FGFR4) [pM]
1 | B1 | 700 | 700 | –
2 | B2 | – | – | 800
